Holding throughout (assay): high-throughput RNA pulldown from lysate on Ni-NTA beads; HRP: 50 mM Tris pH 8, 150 mM NaCl, 1 mM beta-mercaptoethanol, 50 ug/ml BSA, 3 ug/ml yeast RNA, 0.5% heparin; ITC and FP: Tris pH 8, 200 mM KCl, 5% glycerol; MST: 50 mM Tris pH 8, 200 mM NaCl, 1 mM DTT, BSA, heparin, 0.05% Tween 20
Holding throughout (conditions): tags: N-terminal His-eGFP

For data set [1], the target named is T1, GFP-9S library array, motif 4 ND N98A;D124T (synthetic construct, N98A;D124T).
T1 chain: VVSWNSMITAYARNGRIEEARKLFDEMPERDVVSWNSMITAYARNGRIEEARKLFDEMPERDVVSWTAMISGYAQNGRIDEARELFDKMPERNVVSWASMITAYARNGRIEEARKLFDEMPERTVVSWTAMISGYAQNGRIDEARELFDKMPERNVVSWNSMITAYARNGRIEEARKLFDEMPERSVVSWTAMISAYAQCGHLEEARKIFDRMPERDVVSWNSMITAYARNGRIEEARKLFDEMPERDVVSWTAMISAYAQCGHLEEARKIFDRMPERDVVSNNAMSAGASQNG

Data set [2] deals with T2, GFP-9S library array, motif 4 ND N98P;D124I (synthetic construct, N98P;D124I).
T2 chain: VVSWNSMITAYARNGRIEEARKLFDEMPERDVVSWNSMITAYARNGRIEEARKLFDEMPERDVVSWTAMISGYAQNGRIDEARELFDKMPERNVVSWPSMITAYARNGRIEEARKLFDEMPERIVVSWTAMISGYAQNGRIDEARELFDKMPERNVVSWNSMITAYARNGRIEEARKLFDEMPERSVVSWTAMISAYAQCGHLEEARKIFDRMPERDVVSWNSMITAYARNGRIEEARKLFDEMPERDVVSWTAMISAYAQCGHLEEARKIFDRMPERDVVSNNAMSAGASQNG

Data set [3] addresses T3, GFP-9S library array, motif 4 ND N98E;D124T (synthetic construct, N98E;D124T).
T3 chain: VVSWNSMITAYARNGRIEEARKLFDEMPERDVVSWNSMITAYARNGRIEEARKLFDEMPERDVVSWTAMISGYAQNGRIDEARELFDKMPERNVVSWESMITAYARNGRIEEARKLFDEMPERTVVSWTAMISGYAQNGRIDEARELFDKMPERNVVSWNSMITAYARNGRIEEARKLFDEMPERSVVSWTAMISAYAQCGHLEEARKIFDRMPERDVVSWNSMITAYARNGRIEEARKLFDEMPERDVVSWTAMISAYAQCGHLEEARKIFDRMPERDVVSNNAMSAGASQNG

Data set [4] deals with T4, GFP-9S library array, motif 4 ND N98P;D124N (synthetic construct, N98P;D124N).
T4 chain: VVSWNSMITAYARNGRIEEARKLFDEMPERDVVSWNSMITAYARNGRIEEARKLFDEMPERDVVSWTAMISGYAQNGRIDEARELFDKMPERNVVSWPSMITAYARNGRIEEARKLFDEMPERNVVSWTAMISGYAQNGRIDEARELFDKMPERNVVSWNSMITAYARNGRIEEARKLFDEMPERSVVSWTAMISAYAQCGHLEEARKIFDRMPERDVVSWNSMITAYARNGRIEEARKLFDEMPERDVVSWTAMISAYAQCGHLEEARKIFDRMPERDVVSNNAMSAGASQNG

The target in data set [5] is T5, GFP-9S library array, motif 4 ND N98T;D124K (synthetic construct, N98T;D124K).
T5 chain: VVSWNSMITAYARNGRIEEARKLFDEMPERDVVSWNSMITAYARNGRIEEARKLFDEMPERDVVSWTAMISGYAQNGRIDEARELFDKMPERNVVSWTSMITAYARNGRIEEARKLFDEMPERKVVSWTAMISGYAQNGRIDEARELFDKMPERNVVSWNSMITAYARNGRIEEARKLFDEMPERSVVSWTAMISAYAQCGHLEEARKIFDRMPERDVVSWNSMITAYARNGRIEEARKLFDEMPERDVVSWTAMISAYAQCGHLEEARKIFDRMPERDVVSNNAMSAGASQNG

Regarding AUUAUACGUGA (ssRNA) [IR-rpoA-U], the Kd amounted to 68.9 nM in data set [1] (label: 5' IRDye 800CW); 187 nM in data set [2] (label: 5' IRDye 800CW); 476 nM in data set [3] (label: 5' IRDye 800CW); 136 nM in data set [4] (label: 5' IRDye 800CW); 81.9 nM in data set [5] (label: 5' IRDye 800CW).

Regarding AUUAGACGUGA (ssRNA) [Cy5-rpoA-G], the Kd in data set [1] (label: 5' Cy5) was found to be 107 nM; in data set [2] (label: 5' Cy5) it was 127 nM; in data set [3] (label: 5' Cy5) it was 123 nM; in data set [4] (label: 5' Cy5) it was 164 nM; in data set [5] (label: 5' Cy5) it was 131 nM.

For AUUACACGUGA (ssRNA) [Cy5-rpoA], the Kd in data set [1] (label: 5' Cy5) is 102 nM; in data set [2] (label: 5' Cy5), 109 nM; in data set [3] (label: 5' Cy5) it was 130 nM; in data set [4] (label: 5' Cy5), 172 nM; in data set [5] (label: 5' Cy5) it was 131 nM.

As to AUUAAACGUGA (ssRNA) [IR-rpoA-A], the Kd turned out to be 90.7 nM in data set [1] (label: 5' IRDye 800CW); 272 nM in data set [2] (label: 5' IRDye 800CW); 339 nM in data set [3] (label: 5' IRDye 800CW); 151 nM in data set [4] (label: 5' IRDye 800CW); 53.4 nM in data set [5] (label: 5' IRDye 800CW).

The values are drawn from article PMC8809517, “Cofactor-independent RNA editing by a synthetic S-type PPR protein”.
